Patent US20200297818A1 (ZEALAND PHARMA A S, published 2020)
Positions count from the first letter of the chain named. Each block holds one binder with its values, some of them ahead of it.

Key:
[1] = target: human glucagon-like peptide 1 receptor (GLP-1 R) (human, UniProt P43220 24-463); assay: cell-based or functional assay
[2] = target: T1, human GLP-2 receptor (hGLP2-R) (human, UniProt O95838 1-553); assay: cell-based or functional assay
T1 sequence (looked up): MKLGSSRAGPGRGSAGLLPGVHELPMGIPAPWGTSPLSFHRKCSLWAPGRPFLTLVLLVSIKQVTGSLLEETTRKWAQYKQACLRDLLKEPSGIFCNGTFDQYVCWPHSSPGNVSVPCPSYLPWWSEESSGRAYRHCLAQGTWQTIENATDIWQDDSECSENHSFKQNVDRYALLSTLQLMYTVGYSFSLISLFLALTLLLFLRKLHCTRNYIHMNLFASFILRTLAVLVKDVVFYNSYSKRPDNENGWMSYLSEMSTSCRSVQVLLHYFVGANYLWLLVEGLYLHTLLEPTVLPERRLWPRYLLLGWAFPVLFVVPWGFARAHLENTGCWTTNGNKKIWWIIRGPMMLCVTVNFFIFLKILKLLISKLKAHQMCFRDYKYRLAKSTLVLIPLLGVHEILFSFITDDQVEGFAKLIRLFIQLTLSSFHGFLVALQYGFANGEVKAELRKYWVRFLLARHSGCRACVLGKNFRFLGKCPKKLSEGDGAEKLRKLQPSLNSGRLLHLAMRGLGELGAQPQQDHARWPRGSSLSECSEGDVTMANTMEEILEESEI

EC50 GLP-1 (nM); cAMP response [1]: 0.92 nM | EC50 GLP-2 (nM); cAMP response [2]: 0.019 nM
B1: Compound 7 (peptide)
peptide: HXEGTFSSELATILDGXAARDFIAWLIEHKITD
HELM: PEPTIDE1{H.[Aib].E.G.T.F.S.S.E.L.A.T.I.L.D.G.K.A.A.R.D.F.I.A.W.L.I.E.H.K.I.T.D}|PEPTIDE2{[O=C(O)CCCCCCCCCCCCCCCCC(=O)[*:2]].[gGlu]}$PEPTIDE1,PEPTIDE2,17:R3-2:R2$$$V2.0
SMILES: CC[C@H](C)[C@H](NC(=O)[C@H](Cc1ccccc1)NC(=O)[C@H](CC(=O)O)NC(=O)[C@H](CCCNC(=N)N)NC(=O)[C@H](C)NC(=O)[C@H](C)NC(=O)[C@H](CCCCNC(=O)CC[C@H](NC(=O)CCCCCCCCCCCCCCCCC(=O)O)C(=O)O)NC(=O)CNC(=O)[C@H](CC(=O)O)NC(=O)[C@H](CC(C)C)NC(=O)[C@@H](NC(=O)[C@@H](NC(=O)[C@H](C)NC(=O)[C@H](CC(C)C)NC(=O)[C@H](CCC(=O)O)NC(=O)[C@H](CO)NC(=O)[C@H](CO)NC(=O)[C@H](Cc1ccccc1)NC(=O)[C@@H](NC(=O)CNC(=O)[C@H](CCC(=O)O)NC(=O)C(C)(C)NC(=O)[C@@H](N)Cc1c[nH]cn1)[C@@H](C)O)[C@@H](C)O)[C@@H](C)CC)C(=O)N[C@@H](C)C(=O)N[C@@H](Cc1c[nH]c2ccccc12)C(=O)N[C@@H](CC(C)C)C(=O)N[C@H](C(=O)N[C@@H](CCC(=O)O)C(=O)N[C@@H](Cc1c[nH]cn1)C(=O)N[C@@H](CCCCN)C(=O)N[C@H](C(=O)N[C@H](C(=O)N[C@@H](CC(=O)O)C(=O)O)[C@@H](C)O)[C@@H](C)CC)[C@@H](C)CC

EC50 GLP-1 (nM); cAMP response [1]: 0.22 nM | EC50 GLP-2 (nM); cAMP response [2]: 0.039 nM
B2: Compound 8 (peptide)
peptide: B1 peptide with T5S, S7T
HELM: PEPTIDE1{H.[Aib].E.G.S.F.T.S.E.L.A.T.I.L.D.G.K.A.A.R.D.F.I.A.W.L.I.E.H.K.I.T.D}|PEPTIDE2{[O=C(O)CCCCCCCCCCCCCCCCC(=O)[*:2]].[gGlu]}$PEPTIDE1,PEPTIDE2,17:R3-2:R2$$$V2.0
SMILES: CC[C@H](C)[C@H](NC(=O)[C@H](Cc1ccccc1)NC(=O)[C@H](CC(=O)O)NC(=O)[C@H](CCCNC(=N)N)NC(=O)[C@H](C)NC(=O)[C@H](C)NC(=O)[C@H](CCCCNC(=O)CC[C@H](NC(=O)CCCCCCCCCCCCCCCCC(=O)O)C(=O)O)NC(=O)CNC(=O)[C@H](CC(=O)O)NC(=O)[C@H](CC(C)C)NC(=O)[C@@H](NC(=O)[C@@H](NC(=O)[C@H](C)NC(=O)[C@H](CC(C)C)NC(=O)[C@H](CCC(=O)O)NC(=O)[C@H](CO)NC(=O)[C@@H](NC(=O)[C@H](Cc1ccccc1)NC(=O)[C@H](CO)NC(=O)CNC(=O)[C@H](CCC(=O)O)NC(=O)C(C)(C)NC(=O)[C@@H](N)Cc1c[nH]cn1)[C@@H](C)O)[C@@H](C)O)[C@@H](C)CC)C(=O)N[C@@H](C)C(=O)N[C@@H](Cc1c[nH]c2ccccc12)C(=O)N[C@@H](CC(C)C)C(=O)N[C@H](C(=O)N[C@@H](CCC(=O)O)C(=O)N[C@@H](Cc1c[nH]cn1)C(=O)N[C@@H](CCCCN)C(=O)N[C@H](C(=O)N[C@H](C(=O)N[C@@H](CC(=O)O)C(=O)O)[C@@H](C)O)[C@@H](C)CC)[C@@H](C)CC
